Assay results as given in paper PMC4388271 (Acta Crystallographica Section D: Biological Crystallography, 2015).

Legend:
[1] = target: T1, YpTesB (TesB acyl-CoA thioesterase from Y. pestis) (Yersinia pestis, UniProt A0A3N4BCC7); settings: 100 mM phosphate pH 8.0, 0.1 mM DTNB
[2] = target: T1, YpTesB (TesB acyl-CoA thioesterase from Y. pestis); settings: 2.2 A; crystals grown with 1 mM octanoyl-CoA, sodium malonate pH 7.0; CoA between two adjacent chains, in two of four sites
[3] = target: TesB acyl-CoA thioesterase from Yersinia pestis (Yersinia pestis); assay: AUC
[4] = target: TesB acyl-CoA thioesterase from Yersinia pestis (Yersinia pestis); assay: small-angle X-ray scattering (SAXS)
[5] = target: TesB acyl-CoA thioesterase from Yersinia pestis (Yersinia pestis); assay: SEC
[6] = target: TesB acyl-CoA thioesterase from Yersinia pestis (Yersinia pestis); assay: crystal structure

CCCCCCCCCC(=O)SCCNC(=O)CCNC(=O)[C@H](O)C(C)(C)COP(=O)(O)OP(=O)(O)OC[C@H]1O[C@@H](n2cnc3c(N)ncnc32)[C@H](O)[C@@H]1OP(=O)(O)O [C10, decanoyl-CoA]
DTNB assay of released thiol, 412 nm [1]: The highest activity was exhibited towards medium-chain acyl-CoAs (C6–C10)

CC(C)(COP(=O)(O)OP(=O)(O)OC[C@H]1O[C@@H](n2cnc3c(N)ncnc32)[C@H](O)[C@@H]1OP(=O)(O)O)[C@@H](O)C(=O)NCCC(=O)NCCS [CoA]
X-ray crystallography [2]: revealing the same quaternary arrangement of domains as the apo form with density for two CoA molecules

TesB acyl-CoA thioesterase from Yersinia pestis (enzyme)
stoichiometry N [3]: 4
stoichiometry N [4]: 4
stoichiometry N [5]: 4
stoichiometry N [6]: 4
